From article PMC5670239, “Structural basis for mutually exclusive co-transcriptional nuclear cap-binding complexes with either NELF-E or ARS2” (Nature Communications, 2017)
Values belong to the molecule of their own block, whether it stands above or below them.

Experiments:
CBC [1] = target: T1, CBC (Homo sapiens, UniProt P52298); assay: ITC, binding to CBC without cap analogue; conditions: ITC (MicroCal ITC200), 25 °C, 20 mM HEPES, 120 mM NaCl, 2 mM TCEP, pH 7.8, single-site fit; no cap analogue pre-bound; mean ± SD of at least two independent experiments; SD
T1 sequence (P52298 1-156): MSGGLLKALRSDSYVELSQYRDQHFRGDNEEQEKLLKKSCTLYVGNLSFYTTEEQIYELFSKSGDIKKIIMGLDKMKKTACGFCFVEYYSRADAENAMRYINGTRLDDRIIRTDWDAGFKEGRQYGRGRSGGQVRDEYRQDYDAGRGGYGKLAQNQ
T1 sequence (Q09161 20-790 partner): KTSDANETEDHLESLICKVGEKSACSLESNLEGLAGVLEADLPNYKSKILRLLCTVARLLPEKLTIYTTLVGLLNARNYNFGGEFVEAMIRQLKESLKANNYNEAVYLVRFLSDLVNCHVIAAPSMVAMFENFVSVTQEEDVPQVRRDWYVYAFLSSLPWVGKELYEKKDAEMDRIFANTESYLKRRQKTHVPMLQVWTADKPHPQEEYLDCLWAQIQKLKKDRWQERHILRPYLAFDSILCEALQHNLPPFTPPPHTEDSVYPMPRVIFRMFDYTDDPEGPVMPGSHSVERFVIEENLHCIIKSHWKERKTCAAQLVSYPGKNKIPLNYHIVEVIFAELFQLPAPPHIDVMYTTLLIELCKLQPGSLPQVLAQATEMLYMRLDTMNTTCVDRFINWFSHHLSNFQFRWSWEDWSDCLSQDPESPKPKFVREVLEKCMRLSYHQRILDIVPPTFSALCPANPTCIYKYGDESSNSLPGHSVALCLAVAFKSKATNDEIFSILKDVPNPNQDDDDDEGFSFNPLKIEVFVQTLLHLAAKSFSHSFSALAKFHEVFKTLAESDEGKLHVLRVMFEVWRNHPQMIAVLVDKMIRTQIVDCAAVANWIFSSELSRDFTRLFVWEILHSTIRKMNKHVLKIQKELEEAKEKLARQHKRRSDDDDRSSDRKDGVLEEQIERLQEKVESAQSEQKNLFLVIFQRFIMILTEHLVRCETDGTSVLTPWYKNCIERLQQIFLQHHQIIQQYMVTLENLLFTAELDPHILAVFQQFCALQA
Excerpt: (§1) hARS2 isoform-4 (871 residues, UniProt:Q9BXP5-4, also known as isoform-e, NP_001122326) constructs (residues 147–871, 147–845, 763–871, 763–845, 827–871) hNELF-E (NM_002904.5) (244–380, 244–360) and hPHAX (NM_032177.3) (1–394, 103–294, 103–308, 103–327) were cloned into pETM11 (EMBL). Full-length hNELF-E (1–380) was cloned into pFASTBac and CBP20 into pETM30. Primers used are given in Supplementary Table 2. All constructs were expressed in E. coli Rosetta 2 (Novagen), except full-length NELF-E and CBP80ΔNLS (CBP80 with residues 1–19 deleted[2]), which were expressed in High Five insect cells (Life Technology). Cells were harvested and lysed by sonication in lysis buffer containing 50 mM HEPES, pH 7.8, 300 mM NaCl, 10% (v/v) glycerol, 5 mM β-mercaptoethanol. Lysates were clarified by centrifugation and applied on an equilibrated Ni-sepharose column (GE Healthcare), washed with 20 mM imidazole in lysis buffer, and eluted with 300 mM imidazole in lysis buffer. While dialysing into 20 mM HEPES, pH 7.8, 120 mM NaCl, 10% (v/v) glycerol, 5 mM β-mercaptoethanol, the N-terminal 6-histidine-tag was cleaved with His-tagged Tobacco Etch Virus (TEV) protease overnight in a ratio 1:100 mg TEV per mg protein. The cleaved protein was further purified first on Ni-sepharose to remove TEV and then using an anion exchange column (HiTrap Q, GE Healthcare) followed if necessary by a Heparin column (GE Healthcare). In both cases a NaCl gradient from 50 to 800 mM in 20 mM HEPES 7.8, 0.5 mM tris(2-carboxyethyl)phosphine was used. To reconstitute the CBC heterodimer, cleared His-tagged CBP20 lysate was first immobilised on a Ni-sepharose column. After washing the column with lysis buffer, the cleared CBP80 lysate was applied to the column and further purification steps performed as described above. To remove the access of CBP20 the flow through of the Ni-column after TEV cleavage was loaded on an anion exchange column (HiTrap Q, GE Healthcare) and CBC eluted by a NaCl gradient as described above. In the text we refer to CBP80ΔNLS and CBP80ΔNLS-CBP20 as CBP80 and CBC, respectively. ARS2^845–871, NELF-E^354–380, and NELF-E^360–380 peptides, with or without FAM label at the N-terminus, were purchased from GenScript.

CBC [2] = target: T1, CBC; assay: Size exclusion chromatography (gel filtration) co-elution with CBC, with m^7GTP; format: binding; conditions: gel filtration with 500 µM m^7GTP, fractions analysed by SDS-PAGE
Protocol: Fig. 1 The interaction of CBC with ARS2 is enhanced in the presence of m^7GTP. a Schematic diagram of the domain structure of ARS2 based on ref. [26]. b Gel filtration chromatogram and Coomassie-stained SDS-PAGE of CBC-ARS2 in the presence and absence of m^7GTP. Purified recombinant CBC and ARS2^147–871 were mixed with (orange) or without (blue) 500 µM m^7GTP and subjected to gel filtration. Their elution profiles were overlaid (left) and single fractions analysed by SDS-PAGE (middle and right). Purified recombinant CBC and C-terminally truncated ARS2^147–845 were mixed with 500 µM m^7GTP and analysed in a similar way (bottom left). c ITC data and curve fit to derive the affinity of different ARS2 constructs for CBC. CBC or m^7GTP-CBC in the sample cell was titrated by ARS2. […] K D values and standard deviation represent the average from at least two independent experiments. d Sequence alignment of the C-terminus of ARS2. Conserved residues are highlighted in red. Figure made with ESPript[54]
Fig. 2 The interaction of CBC with NELF-E is enhanced in the presence of m^7GTP. a Schematic diagram of the domain structure of NELF-E. b Gel filtration chromatogram and Coomassie-stained SDS-PAGE of CBC-NELF-E in the presence and absence of m^7GTP. Purified recombinant CBC and NELF-E were mixed with (orange) or without (green) 500 µM m^7GTP and subjected to gel filtration. Their elution profiles were overlaid (left) and single fractions analysed by SDS-PAGE (middle and right). Purified recombinant CBC and NELF-E^244–360 were mixed together with 500 µM m^7GTP and similarly analysed (bottom left). c ITC data and curve fit to derive the affinity of different NELF-E constructs for CBC. CBC or m^7GTP-CBC in the sample cell was titrated by NELF-E^244–380 or NELF-E^360–380. The data were presented as described in the caption to Fig. 1c. d Sequence alignment of the C-terminus of NELF-E. Conserved residues are highlighted in red. Figure made with ESPript[54]

m^7GTP-CBC = target: T2, m^7GTP-CBC (Homo sapiens, UniProt P52298+Q09161); assay: ITC, binding to CBC in the presence of the cap analogue m^7GTP; conditions: ITC, 25 °C, 20 mM HEPES, 120 mM NaCl, 2 mM TCEP, pH 7.8, CBC bound to m^7GTP, mean ± SD of at least two independent experiments
T2 construct: 6-histidine tag (pETM30 vector) (N, cleaved yes); made in house; host or cells: CBP20 in E. coli Rosetta 2; CBP80ΔNLS in High Five insect cells; heterodimer reconstituted on Ni-sepharose
T2 sequence (Q09161 20-790): T1 sequence (Q09161 20-790 partner)
T2 sequence (P52298 1-156): T1 sequence (P52298 1-156)
Excerpt: as §1

Kd (CBC [1]): 600 ± 140 nM
B1: PHAX 103–308: human PHAX residues 103–308 (protein, UniProt Q9H814 103-308, looked up, fragment)
chain: SQKPPVAGGKKINNIWGAVLQEQNQDAVATELGILGMEGTIDRSRQSETYNYLLAKKLRKESQEHTKDLDKELDEYMHGGKKMGSKEEENGQGHLKRKRPVKDRLGNRPEMNYKGRYEITAEDSQEKVADEISFRLQEPKKDLIARVVRIIGNKKAIELLMETAEVEQNGGLFIMNGSRRRTPGGVFLNLLKNTPSISEEQIKDIF

B2: NELF-E 244–360: NELF-E fragment that lacks the last 20 residues (protein, UniProt P18615 244-360, looked up, fragment)
chain: GPFRRSDSFPERRAPRKGNTLYVYGEDMTPTLLRGAFSPFGNIIDLSMDPPRNCAFVTYEKMESADQAVAELNGTQVESVQLKVNIARKQPMLDAATGKSVWGSLAVQNSPKGCHRD
Interaction with CBC by SEC in the presence of m^7GTP (CBC [2]): no stable complex is observed by SEC

Kd (CBC [1]): 850 ± 210 nM
B3: PHAX 103–294: human PHAX residues 103–294, minimal CBC binding region (protein, UniProt Q9H814 103-294, looked up, fragment)
chain: SQKPPVAGGKKINNIWGAVLQEQNQDAVATELGILGMEGTIDRSRQSETYNYLLAKKLRKESQEHTKDLDKELDEYMHGGKKMGSKEEENGQGHLKRKRPVKDRLGNRPEMNYKGRYEITAEDSQEKVADEISFRLQEPKKDLIARVVRIIGNKKAIELLMETAEVEQNGGLFIMNGSRRRTPGGVFLNLLK

Kd (m^7GTP-CBC; SD): 1000 ± 300 nM
B4: ARS2 763–871: human ARS2 isoform 4 residues 763–871, E. coli expressed (protein, UniProt Q9BXP5 763-871, looked up, fragment)
chain: PEIKPAQPPGPAQILPPGLTPGLPYPHQTPQGLMPYGQPRPPILGYGAGAVRPAVPTGGPPYPHAPYGAGRGNYDAFRGQGGYPGKPRNRMVRGDPRAIVEYRDLDAPD
modifications: isoform 4
notes: human ARS2 isoform 4 residues 763–871, E. coli expressed

B5: ARS2^147–845: C-terminally truncated ARS2, residues 147–845 (protein, UniProt Q9BXP5 147-845, looked up, fragment)
chain: PVMKTFKEFLLSLDDSVDETEAVKRYNDYKLDFRRQQMQDFFLAHKDEEWFRSKYHPDEVGKRRQEARGALQNRLRVFLSLMETGWFDNLLLDIDKADAIVKMLDAAVIKMEGGTENDLRILEQEEEEEQAGKPGEPSKKEEGRAGAGLGDGERKTNDKDEKKEDGKQAENDSSNDDKTKKSEGDGDKEEKKEDSEKEAKKSSKKRNRKHSGDDSFDEGSVSESESESESGQAEEEKEEAEEALKEKEKPKEEEWEKPKDAAGLECKPRPLHKTCSLFMRNIAPNISRAEIISLCKRYPGFMRVALSEPQPERRFFRRGWVTFDRSVNIKEICWNLQNIRLRECELSPGVNRDLTRRVRNINGITQHKQIVRNDIKLAAKLIHTLDDRTQLWASEPGTPPLPTSLPSQNPILKNITDYLIEEVSAEEEELLGSSGGAPPEEPPKEGNPAEINVERDEKLIKVLDKLLLYLRIVHSLDYYNTCEYPNEDEMPNRCGIIHVRGPMPPNRISHGEVLEWQKTFEEKLTPLLSVRESLSEEEAQKMGRKDPEQEVEKFVTSNTQELGKDKWLCPLSGKKFKGPEFVRKHIFNKHAEKIEEVKKEVAFFNNFLTDAKRPALPEIKPAQPPGPAQILPPGLTPGLPYPHQTPQGLMPYGQPRPPILGYGAGAVRPAVPTGGPPYPHAPYGAGRGNYDAFRGQGGY
Interaction with CBC by SEC in the presence of m^7GTP (CBC [2]): failed to bind

K D (m^7GTP-CBC): failed to bind
B6: ARS2 763–845: human ARS2 isoform 4 residues 763–845, lacks the C-terminal 27 amino acids (protein, UniProt Q9BXP5 763-845, looked up, fragment)
chain: PEIKPAQPPGPAQILPPGLTPGLPYPHQTPQGLMPYGQPRPPILGYGAGAVRPAVPTGGPPYPHAPYGAGRGNYDAFRGQGGY
modifications: isoform 4
notes: human ARS2 isoform 4 residues 763–845, lacks the C-terminal 27 amino acids
